Values of other authors as cited in article PMC8634938.

Tests used:
IL-22R (Homo sapiens) = IL-22R (Homo sapiens) (UniProt Q8N6P7)
IL-22BP (Homo sapiens) = IL-22BP (Homo sapiens) (UniProt Q969J5)
Chain of UniProt Q969J5 (Q969J5 22-263): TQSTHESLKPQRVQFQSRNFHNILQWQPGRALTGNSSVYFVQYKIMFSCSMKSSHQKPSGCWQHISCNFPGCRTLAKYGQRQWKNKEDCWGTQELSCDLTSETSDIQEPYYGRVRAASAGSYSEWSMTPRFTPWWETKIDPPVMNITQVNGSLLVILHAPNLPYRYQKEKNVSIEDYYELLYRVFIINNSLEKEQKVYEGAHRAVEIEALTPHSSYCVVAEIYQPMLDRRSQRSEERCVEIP

Chain of UniProt Q8N6P7 (Q8N6P7 16-228): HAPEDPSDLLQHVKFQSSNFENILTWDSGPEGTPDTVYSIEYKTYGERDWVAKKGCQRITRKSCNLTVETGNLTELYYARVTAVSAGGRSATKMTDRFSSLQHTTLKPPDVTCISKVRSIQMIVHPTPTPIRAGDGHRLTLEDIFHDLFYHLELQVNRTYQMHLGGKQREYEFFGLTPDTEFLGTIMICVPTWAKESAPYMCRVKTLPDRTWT

- Kd (IL-22R (Homo sapiens)): 20 nM
- Kd (IL-22BP (Homo sapiens)): 0.001 nM
Substance: IL-22 (from UniProt Q9GZX6)
